# According to the supplement of paper PMC9112550, “Optimization of the antimicrobial peptide Bac7 by deep mutational scanning” (BMC Biology, 2022):
# Test system: Escherichia coli TOP10
# Assay: shrunken log2 fold change of peptide-encoding DNA abundance (4.5 h post-induction vs induction); higher = less antimicrobial activity (less host growth inhibition)
# Conditions: time post-induction: 4.5 h; library: site-saturation at positions 5, 18, 19, 20
# 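Also: peptides expressed intracellularly from a pBAD plasmid library in pooled LB shake-flask culture, induced with 0.3% L-arabinose, DNA abundance read by NGS, three biological replicates, DESeq2 with apeglm shrinkage.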
row,Sequence,shrunken log2 fold change
1,RRIRGRPPRLPRPRPRPFHTPRP,-0.161
2,RRIRSRPPRLPRPRPRPFNNPRP,-0.458
3,RRIRCRPPRLPRPRPRPHYFPRP,-0.324
4,RRIRHRPPRLPRPRPRPYTLPRP,-0.611
5,RRIRGRPPRLPRPRPRPKNYPRP,0.175
6,RRIRYRPPRLPRPRPRPLGYPRP,-0.162
7,RRIRTRPPRLPRPRPRPIAEPRP,0.0307
8,RRIRFRPPRLPRPRPRPACIPRP,-0.397
9,RRIRFRPPRLPRPRPRPPRHPRP,0.411
10,RRIRERPPRLPRPRPRPNFEPRP,-0.188
11,RRIRVRPPRLPRPRPRPSFQPRP,-0.22
12,RRIRKRPPRLPRPRPRPSVFPRP,0.244
13,RRIRPRPPRLPRPRPRPMTCPRP,-0.251
14,RRIRIRPPRLPRPRPRPFRMPRP,-0.91
15,RRIRHRPPRLPRPRPRPVWPPRP,0.217
16,RRIRMRPPRLPRPRPRPDAIPRP,0.164
17,RRIRCRPPRLPRPRPRPAGDPRP,0.176
18,RRIRQRPPRLPRPRPRPRLPPRP,0.467
19,RRIRPRPPRLPRPRPRPVWIPRP,0.0152
20,RRIRGRPPRLPRPRPRPMNNPRP,0.18
21,RRIRTRPPRLPRPRPRPEPTPRP,0.347
22,RRIRKRPPRLPRPRPRPERRPRP,0.337
23,RRIRYRPPRLPRPRPRPFARPRP,-0.084
24,RRIRRRPPRLPRPRPRPRDQPRP,0.341
25,RRIRPRPPRLPRPRPRPKSLPRP,-0.015

row,Sequence,shrunken log2 fold change
1,RRIRVRPPRLPRPRPRPKTRPRP,0.63
2,RRIRYRPPRLPRPRPRPVHHPRP,-0.211
3,RRIRQRPPRLPRPRPRPKCHPRP,-0.0268
4,RRIRPRPPRLPRPRPRPMWYPRP,-0.111
5,RRIRKRPPRLPRPRPRPTFQPRP,0.05
6,RRIRNRPPRLPRPRPRPCQVPRP,-0.106
7,RRIRFRPPRLPRPRPRPAVGPRP,0.591
8,RRIRQRPPRLPRPRPRPASVPRP,0.253
9,RRIRDRPPRLPRPRPRPVMCPRP,0.156
10,RRIRPRPPRLPRPRPRPRRGPRP,0.46
11,RRIRNRPPRLPRPRPRPGMFPRP,-0.252
12,RRIRARPPRLPRPRPRPASHPRP,2.2
13,RRIRRRPPRLPRPRPRPFLNPRP,-0.0441
14,RRIRGRPPRLPRPRPRPMPAPRP,1.29
15,RRIRNRPPRLPRPRPRPDKRPRP,-0.0491
16,RRIRPRPPRLPRPRPRPAHRPRP,0.384
17,RRIRYRPPRLPRPRPRPYVDPRP,-0.0075
18,RRIRIRPPRLPRPRPRPLGHPRP,-0.425
19,RRIRLRPPRLPRPRPRPFKYPRP,-0.482
20,RRIRYRPPRLPRPRPRPENYPRP,-0.0233
21,RRIRVRPPRLPRPRPRPPTRPRP,0.508
22,RRIRGRPPRLPRPRPRPCCTPRP,1.31
23,RRIRGRPPRLPRPRPRPWHPPRP,0.49
24,RRIRPRPPRLPRPRPRPVRVPRP,0.502
25,RRIRMRPPRLPRPRPRPALTPRP,0.433

row,Sequence,shrunken log2 fold change
1,RRIRLRPPRLPRPRPRPPEPPRP,0.232
2,RRIRGRPPRLPRPRPRPCMPPRP,-0.152
3,RRIRLRPPRLPRPRPRPAQSPRP,0.485
4,RRIRMRPPRLPRPRPRPYPKPRP,0.0427
5,RRIRERPPRLPRPRPRPYCVPRP,-0.165
6,RRIRPRPPRLPRPRPRPVHYPRP,-0.121
7,RRIRPRPPRLPRPRPRPLIYPRP,-0.457
8,RRIRYRPPRLPRPRPRPVCVPRP,-0.339
9,RRIRNRPPRLPRPRPRPIKFPRP,-0.165
10,RRIRCRPPRLPRPRPRPDFPPRP,0.137
11,RRIRCRPPRLPRPRPRPLQAPRP,0.646
12,RRIRHRPPRLPRPRPRPESMPRP,0.0353
13,RRIRFRPPRLPRPRPRPGTDPRP,-0.11
14,RRIRHRPPRLPRPRPRPKGGPRP,0.0418
15,RRIRNRPPRLPRPRPRPDVPPRP,-0.199
16,RRIRVRPPRLPRPRPRPEGPPRP,0.239
17,RRIRDRPPRLPRPRPRPVGFPRP,0.859
18,RRIRKRPPRLPRPRPRPRQNPRP,0.586
19,RRIRFRPPRLPRPRPRPSGCPRP,-0.0116
20,RRIRDRPPRLPRPRPRPKGSPRP,-0.145
21,RRIRVRPPRLPRPRPRPRVDPRP,0.455
22,RRIRDRPPRLPRPRPRPECGPRP,1.71
23,RRIRRRPPRLPRPRPRPKCVPRP,-0.29
24,RRIRRRPPRLPRPRPRPLYDPRP,-0.0854
25,RRIRVRPPRLPRPRPRPLVEPRP,-0.125
